This data set can be described thus: soluble on expression in E. coli; label from the status in PepcDB or PDB records.
Consider “MQSKTAKLPDNDRNRPLIQTFNDAQQKVWFDDALLHEDPSQCCNPEFWQQNGKVLGSATGRGTTWFVQLQQTQGALRHYRRGGLFGKLVADSYWFTGWEKTRSYQEFMLLNHLRDAGVNVPRPIAARVQKHGLLYKADLLSEKVPNARDLVSILQESPISDELYRKIGREIRKMHDAQVNHTDLNIHNILIDDQEKVWIIDFDKCYVQIGDSWKQGNLKRLKRSFEKEVCKRGINWSLEAFAIISSYKHEE”, for which the “soluble on expression in E. coli” value was “not soluble”.

Regarding “MQSWKERRDFNIVKQDLDFSCGAASVVTLLNNFYGQKLTEEDVLKKLDKEQMPASFEDMRRIMPDLGFEAKGYALSFEQLAQLQIPVIVYLKYRKDDHFSVLRGIDGNTVLLADPSLGHVSMSRAQFLDAWQTREGNLAGKILAVVPKGRDAGGDKAFFTRSPKRQTEFAVGQVKWWRAY”, the “soluble on expression in E. coli” value is listed as “not soluble”.

Regarding “MQTIKNSLGQSHDYIKMFVKEGDTVVDATCGNGNDTAFLASLVGENGRVFGFDIQDKAIANTTKKLTDLNLIDRVTLIKDGHQNMDKYIDCPVKAVMFNLGYLPSGDHSISTRPETTIQALSKAMELLVTGGIITVVIYYGGDTGFEEKEKVLEFLKGVDQKKFIVQRTDFINQANCPPILVCIEKISLEHHHHHH”, the “soluble on expression in E. coli” value is “not soluble”.

In the case of “MQTLGFRRPNQVREAVYRHLKDLLLSGRFSPGERLSEPLLAQELGVSRTPVREALMRLAEEGLVELVPGKGARVRVFAPEEVEEVYGVRALLEGEAAREAALRATPWELAELERLLQAIDEAPREDYPEQMRRDLEFHRALVRLSGNRTLYRLYEDLLATLALARSALPTLSQDEATRREHRAILEALLRRDPEEARRAVEAHVFRFRDLVVGRLREEGG”, the “soluble on expression in E. coli” value is “soluble”.

As for “MQTQEVVIKPTLKVLLKSDSQNLEEVVVTAMGIKRSEKSLGYAVSSVKGDEITKARESNVLNSLSGKIAGLQIAQSSGTVGGSSSIQIRGASSIGTVSSPLFIIDGLPIDNGSYNPDRTNGIVDVGNRAGDINSDDIESINVLKGAAATALYGARAKDGAIVITTKKGKKNSPVFVTVNSSTRFENVLKLPDFQNEYAQGSYGVYNVKMLNGWGPKISSVQDQQFTDYKGDKVTLKANPDNVKDFYETGMSYINNVSVAGGGEKADFRLSFTSTNQTGVVPGSDYNKYAFSVNAGMNFTSNFTGRISAQYIRSDSEGRPAQGANDSNLLIPLINGLPRTIDIHDIKQNWIDENGKQVTLDPEGKSNNPYWIINKNKFTNNLDRMIGNITLTYKPIEGLTITNNAGTDFYTEGRRKLYAKGTVGALNGKFQTWNLYKRIINNDLMVSYEKTFANDYHFKAMVGHNLYQEEWKNENVQAQNLVVDGLYTYTNAKSTTPVNYYEKKRLVGLYGDISLGYKDMLFINVTGRNDWSSTLPINNRSYFYPSISGSFIFTELMENKDILNYGKIRLSYANVGSDEDPYNLAFKYTPASTYFLQYLGNVNTFPHMGLVGFTGPRVLPNENLKPQNQSSFEVGADLRFFGGKIRLDMTYYSNITKNQIVSIDVPLSTGYFANNINAGKIANKGVEVTLGLTPVETRNFKWDLDATFASNKQTVEELAEGLDEYTLTSGLSGLQIKAAKGDSFGLYGTAWKRDDQGNYVINSKTGLRETVNNVRLGDVYPDFTMGINNTLTYKGLTFSFLIDIRHGGSLYSETVANLRSSGLAAETVAHREDASFIEPGVILQDDGTYRPNDVPVKSMQDYWQHVANSSNNEGNIYNASFVKLREVQLSYSFPRKWFKSFFVKSLDLGFEARNLWIIKDHVPHIDPEANFFGPSQIGGGVEFNSIPSTRSFGFNLRLTL”, the “soluble on expression in E. coli” value is on record as “not soluble”.

In the case of “MQVFDLSVDGATTIDIGASTGGFTDVMLQNSAKLVFAVDVGTNQLAWKLRQDPRVVSMEQFNFRYAEKTDFEQEPSFASIDVSFISLSLILPALHRVLADQGQVVALVKPQFEAGREQIGKNGIIRDAKVHQNVLESVTAMAVEVGFSVLGLDFSPIQGGHGNIEFLAYLKKEKSASNQILAEIKEAVERAHSQFKNE”, the “soluble on expression in E. coli” value is listed as “not soluble”.

As for “MQVHSGETEILRKAVEDYFCFCYGKALGTTVMVPVPYEKMLRDQSAVVVQGLPEGVAFQHPENYDLATLKWILENKAGISFIINRPFLGPESQLGGPGMVTDAERSIVSPSESCGPINVKTEPMEDSGISLKAEAVSVKKESEDPNYYQYNMQGSHPSSTSNEVIEMELPMEDSTPLVPSEEPNEDPEAEVKIEGNTNSSSVTNSAAGVEDLNIVQVTVPDNEKERLSSIEKIKQLREQVNDLFSRKFGEAIGVDFPVKVPYRKITFNPGCVVIDGMPPGVVFKALGYLEISSMRRILEAAEFIKFTVIRPLPGLELSNVGKRKIDQEGRVFQEKWERAYFFVEVQNIPTCLICKQSMSVSKEYNLRRHYQTNHSKHYDQYTERMRDEKLHELKKGLRKYLLGSSDTECPEQKQVFANPSPTQKSPVQPVEDLAGNLWEKLREKIRSFVAYSIAIDEITDINNTTQLAIFIRGVDENFDVSEELLDTVPMTGTKSGNEIFLRVEKSLKKFCINWSRLVSVASTGTPAMVDANNGLVTKLKSRVATFCKGAELKSICCIIHPESLCAQKLKMDHVMDVVVKSVNWICSRGLNHSEFTTLLYELDSQYGSLLYYTEIKWLSRGLVLKRFFESLEEIDSFMSSRGKPLPQLSSIDWIRDLAFLVDMTMHLNALNISLQGHSQIVTQMYDLIRAFLAKLCLWETHLTRNNLAHFPTLKLVSRNESDGLNYIPKIAELKTEFQKRLSDFKLYESELTLFSSPFSTKIDSVHEELQMEVIDLQCNTVLKTKYDKVGIPEFYKYLWGSYPKYKHHCAKILSMFGSTYICEQLFSIMKLSKTKYCSQLKDSQWDSVLHIAT”, the “soluble on expression in E. coli” value is recorded as “soluble”.

Consider “MQVLDKTQVEAVSKALGEPAWLLEKRLKALEAFARLPYPSKKDENWRYTDLSEAPLELPVEAPKGLRLSRDDLPEPVKRRLERTDVSGFLVFVGPDLVYAEVPEALKEKGLVFTSLAEALKTHPDKVEAALFQAVYTEDKFAAQNSAFFTHGAFLYVPAGLEVEKPLGVFKVLLEGEKASAGRSLLFLEDNAKAAYIEEYLSLDLPPTLHLSATEMVLRPGARLRHAHVQTFGEGVWHFHRQRALLERDSGLNDLVVNLGGAYARSEVASELVGPGAESEMLGLYFGHGRQQFDHYTLQHHVEHHTRSDLLYKGAVKDEARAVFSGLIRLEKGAQKTDAYQANRNLLLSPTARVDSIPQLEIGANDVRCTHGSTTAPVDEMQLFYLQSRGLPRGLAQELLVKAHLADVLSRIPLKALRAHIEAVIEEKVRI”, for which the “soluble on expression in E. coli” value is listed as “soluble”.

On to “MQVMFYSPSGQKLFGENGSPAFLLKGGITDLKGAIEARTTVIPEVPGQVFDGVTIKPFTFGVTMVVYPTKEMPMEKAMRKTRQIFSAFDYSTCRIDGTGIPVGLKVRLDSIISAPSQDTAKEIAEEITITLAADEGIFWADRKEASGKIDIVNYGDCDLWPEYRWQKTTTITLPSGAKINLPETPTPRVLRTTRHQVSITDLDGKPDRELLKKLGTVWPEGVPRKETKTYEITQNGYIMWRIGYLDPWGL”, for which the “soluble on expression in E. coli” value is reported as “not soluble”.

Turning to “MQYFSPEQQYNAWIVSDLVKQIFHKRAGCSPGIHELAVFAEEHFHIDIDFVFSIIMNIGDIEFALTDEIEKKLSGYLSTLLPYVTADMFETSKANAHAFLSRRHGNAAYHLFVSDDAFMRKQLEHHHHHH”, the “soluble on expression in E. coli” value is “soluble”.

In the case of “MQYHEIGKTGMKVSSLSFGASSLGGVFHDLKEKEGIQAVFTAIEAGMNFIDVSPYYGHYKAETVLGKALKDIPRDRYYLSTKVGRYGKDGVNTWDYSAKRATESVYESMERLNIDFIDLINVHDIEFADLNQVVNETLPALVELREKGVVGHVGITDLQLENLKWVIDRSPSGTIESVLSFCHYCLCDDKLADFLDYFESKEIGVINASPLSMGLLSERGVPVWHPAPKPLVDACRKAMEHCKAKNYPIEKLAMQFSVSNPKIATTLFSTTNPENVKKNIGFIEEPVDWELVREVREIIGEQQRVSWANS”, the “soluble on expression in E. coli” value was “not soluble”.

In the case of “MRAVWVLGIDTSCDDTGVGLVRDGKVVVNLVASQVRLHEAFGGVVPELASREHLKALPLLVERALAEAGLRPKDLDLVAATRGPGLIGALLVGYTFAKGMAFALDRPFYAVHHLEGHIAAAWPEGLPPPFLALVASGGHTHLYEVLDLGRYRLLGATRDDAAGEAFDKVARLLGLGFPGGPEVERLAEEAEEAIPFPVPLRGQEGYDFSFSGLKTKALHLVEKGLPKAALAKGFQEAAIAHLAEVVLKAAKDTGHRVLLVAGGVAANRALQERFKEAGLEVHFPPRGLSQDNGAMIALAAWRRHQRGFPPSPLSLGATAYWPLEEA”, the “soluble on expression in E. coli” value is given as “soluble”.

Turning to “MRCIQLYVFYLISQLFTTGSAQKTFHYGVTGGEQFGRHEPSTRLSRFQSTPVSLNPLEDTLRVQQILKKLEDPGGLEIRRRSTSRRLHGVLTEPFGTPLVISGNSSEKKKKKPLKIKKRNGRRNPKSPEVNEYELQLAKQIEEDQLKFVEDEKNPMKYVVENGLLFRQSRYSPLARVEIPPVSGMSEISGISQRTSHSVGQTMQNPPRKRRRKQSYKLKNSKSSSESMFRTNVFRGNINRQIPAIPLPSPFSVAYGKPSFAIAREEDGKCYTNRFGYRCCDEALEALILKSYEKLRRKSNDLEDNLSKIASTLRRDSRQVFAKNLEAIVSTSNFGTSIPSDFSCKVELGPNRFVAQVFVPELGLDAKTTTRRHRIPYHELSREDLSDAADLVVSRNGIIVSKLL”, the “soluble on expression in E. coli” value is given as “not soluble”.

For the sequence “MRCMTLPAYDIAILGAGPVGRVLALLLARLTPQPQRIALLQGGAGLPPTPAGTLGPAADPRVLALNHGSRVLLESLRAWPAHAAEIRHIHVSQRGRLGRTVIDREDFDVPQLGNVVAYAALHAQLEQAVQDCGVTVLSGPPARVDGQDGEGLTVRQGDAALHCRLAVQCDGAGGSDVRRDYAQHAVLTSAHATLPRSGWAWERFTNEGPLAMLPHPQTPEAYSVVWCCAPPRARRLAGLDDEAFSRELTEAFGTRLGRLRSAAPRHVFPLELKARHAQAHGRLATIGNAAQTLHPVAGQGLNLGLRDAAQLAHALPDWLAAPQADPSPLLATFARARLADRWVTAGLTDLMPRIFATGLAPVEHACGLALLGLDIAAPLRAPLARHLLQGLRVLEHHHHHH”, the “soluble on expression in E. coli” value was “soluble”.

Turning to “MRDSPTHKEQRAQNTMSDQMPFPFNNFTYFFTLFSKFFSSFHHCTCSLSVSRQYLALDGIYHPLRAAFPNNSTLRRHFTKNRTPRHTGFSPSMTSCSKEHRQGTAPKLPSPNYNSGTEGTRFQI”, the “soluble on expression in E. coli” value is recorded as “not soluble”.

As to “MRDVLFLPFADGMELAVAADGSAAVGDKPGDVVSAPADVVAYFAARVALMELVSVGAEAKAVVLQNFIADDRWEALCRGVRRTCRELGIDLPITGSTESNFPTVQSALGVTAIGTVANERKRIGITPEEAKFAVIGRPLVGSAVLSHPEWVAPLPLFAALLRTPYIYELIPIGSKGIYYEWTQLLAANGRQGRACACPLPLFSSGGPATSVLVSYDPDGEREIKKQAGSLFFPLHVEW”, the “soluble on expression in E. coli” value is on record as “not soluble”.

For “MRDWVIPPISCPENEKGEFPKNLVQIKSNRDKETKVFYSITGQGADKPPVGVFIIERETGWLKVTQPLDREAIAKYILYSHAVSSNGEAVEDPMEIVITVTDQNDNRPEFTQEVFEGSVAEGAVPGTSVMKVSATDADDDVNTYNAAIAYTIVSQDPELPHKNMFTVNRDTGVISVLTSGLDRESYPTYTLVVQAADLQGEGLSTTAKAVITVKDINDNAPVFNPS”, the “soluble on expression in E. coli” value is “soluble”.

“MREIVHVQAGQCGNQIGAKFWEVISDEHGIQPDGTYKGESDLQLERINVYYNEANGGKYVPRAVLVDLEPGTMDSVRSGPFGQLFRPDNFVFGQSGAGNNWAKGHYTEGAELVDNVLDVVRKEAEGCDCLQGFQLTHSLGGGTGSGMGTLLISKIREEYPDRIMSSFSVVPSPKVSDTVVEPYNATLSVHQLVENTDETFCIDNEALYDICFRTLKLSNPTYGDLNHLVSVTMSGVTTCLRFPGQLNADLRKLAVNMVPFPRLHFFMPGFAPLSAKGAQAYRALTVAELTQQMFDAKNMMAACDPRHGRYLTVAAMFRGRMSMREVDDQMMNVQNKNSSYFVEWIPNNVKTAVCDIPPRGLKMSATFIGNSTAIQELFKRISEQFTAMFRRKAFLHWYTGEGMDEMEFTEAESNMNDLVSEYQQYQEATAEEDGELDGTDGDAE”: the “soluble on expression in E. coli” value is “not soluble”.

The record behind these values is the DeepSol protein solubility set.
